From patent US20150351390A1, “COMPOSITIONS AND METHODS FOR AUXIN-ANALOG CONJUGATION” (PIONEER HI-BRED INTERNATIONAL, INC., priority 2012, published 2015)

Legend:
[1] = LC-MS assay of GH3 conjugation of IAA with Asp or Glu; assay type: biochemical; details: for kcat (hrs−1) IAA-Asp: conjugation of IAA with Asp by recombinant GH3 protein, IAA-Asp product by LC-MS; for kcat (hrs−1) IAA-Glu: conjugation of IAA with Glu by recombinant GH3 protein, IAA-Glu product by LC-MS
Outline: (§1)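 Amino acid conjugates of IAA, 2,4-D or dicamba measured by LC-MS against conjugate standards, with kinetic parameters fitted to Michaelis-Menten initial velocities. Reactions: 5 mM each of auxin, ATP and Asp or Glu with 44 to 164 μg/mL purified His-tagged GH3 (E. coli-expressed), pH 8.0 Tris, 5 mM MgCl2, 1 mM DTT, 30 °C for 3 h.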

[2] = LC-MS assay of GH3 conjugation of 2,4-D with Asp or Glu; assay type: biochemical; details: 5 mM 2,4-D substrate; for kcat (hrs−1) 2,4-D-Asp: conjugation of 2,4-D with Asp by recombinant GH3 protein, 2,4-D-Asp product by LC-MS; for kcat (hrs−1) 2,4-D-Glu: conjugation of 2,4-D with Glu by recombinant GH3 protein, 2,4-D-Glu product by LC-MS
Outline: as §1

Row | Molecule | kcat (hrs−1) IAA-Asp [1] | kcat (hrs−1) IAA-Glu [1] | kcat (hrs−1) 2,4-D-Asp [2] | kcat (hrs−1) 2,4-D-Glu [2]
1 | OsGH3-4: GH3 protein, accession AAU90225 (protein, listed as Oryza sativa) MPEAVAAAVSPAAAAATAMCAEHREKLEHIERVTRNAGQEQRRVLEEILAQNAQAEYLRRLGVPGDAPGADEAFRRLAPLVTYEDILPDVLRIANGDTSPILSGKPVSEFLTSSGTSGGERKLMPTIEEEMERRSGLYSLLMPVMSRQVPGLDKGKAMYLYFVKSEWRTPGGLPARPVLTSFYRSRYFLERPHDPYTVYTSPDEAVLCEDAYQSMYAQLICGLVHRADVLRVGAVFASGFLRAIRFLEKHWPSLCRDIRAGELDGGVTDPAVRGAVGRVLRGADPALADAIEAECARPSWQGIIRRVWPSTKYIDVIVTGAMAQYIPTLEFYGGGLPLACTMYASSECYFGLNLNPMCKPSEVAYTLIPTMCYFEFLPVNSGANDVAAPEPDHRGLVDLVDVKLGHEYELVVTTYSGLYRYRVGDVLRVAGFKNAAPMFAFVRRKNVALSIDSDKTDEAELHAAVTEAVQHLAPFGASLVEYTSYADTATTIPGHYVLFWELRSPAGGTPVPASVFEDCCLAVEEGLNSVYRQCRAADRSIGPLEIRVVADGTFDKLMDYALSRGASINQYKAPRCVRPGPVVELLDGRVQATYFSPKCPKWCAGGNKQWISSGAAAKKTTTTCDSLAV | 919.336 h⁻¹ | 17.854 h⁻¹ | 2.002 h⁻¹ | 0.254 h⁻¹
2 | AtGH3-15: GH3 protein, accession CAB87144 (protein, listed as Arabidopsis thaliana) MLPKFDPTNQKACLSLLEDLTTNVKQIQDSVLEAILSRNAQTEYLRGFLNGQVDKQNFKKNVPVVTYEDIRSYIDRIANGEPSDLICDRPISVLLTSSGTSGGVPKLIPLTTEDLEQRISFSSLYAPLLYKHIDGLSEGKSLIFYFVTRESKTANGDSLQVSPHAITTCADTTQSMYCQLLCGLLERDNVARLGAPFASSFLKVIKFLEDHWPELCSNIRTGRLSDWITDATCTSGIGKFLTAPNPELASLIEQECSKTSWEAILKRLWPKAKCIESIITGTMAQYIPLLEFYSGGLPLTSSFYGSSECFMGVNFNPLCKPSDVSYTIIPCMGYFEFLEVEKDHQEAGHDPTEKPVVVDLVDVKIGHDYEPVVTTFSGLYRYRVGDVLRATGFYNNAPHFCFVGRQKVVLSIDMDKTYEDDLLKAVTNAKLLLEPHDLMLMDFTSRVDSSSFPGHYVIYWELGSKVKDAKFEPNRDVMEECCFTVEESLDAVYRKGRKNDKNIGPLEIKVVKPGAFDELMNFFLSRGSSVSQYKTPRSVTNEEALKILEANVISEFLSRKIPSWELHELHSGR | 0.000 h⁻¹ | 0.000 h⁻¹ | 0.000 h⁻¹ | 0.000 h⁻¹
3 | OsGH3-2: GH3 protein, accession BAF06259 (protein, listed as Oryza sativa) MAPAAVAAAEAGSKAAAVAGKAVAACERDAEKLEFIEEMTRGFDAVQERVLAAILARNNGAEYLRRHGMEGRTDREAFKARVPVVTYEDLRPEIERIANGDRSNIISSHPITEFLTSSGTSAGERKLMPTIEDELDRRQMLYSLLMPVMNLYVPGLDKGKGLYFLFIKSETKTPGGLPARPVLTSYYKSDHFKHRPFDPYNVYTSPTAAILCTDAFQSMYAQMLCGLVARAEVLRVGAVFASGLLRAIRFLQLHWRELAHDIRTGTLSAKVTEPSIRDAVAEVLAAPDAELAAFVEAECGKDKWEGIITRMWPNTKYLDVIVTGAMAQYIPTLKFYSGGLPMACTMYASSECYFGLNLRPMCDPSEVSYTIMPNMGYFELMPHDPDAPPLPRDAPPPRLVDLADAEVGREYELVITTYAGLCRYRVGDILQVTGFHNAAPQFRFVRRKNVLLSIDSDKTDEAELQAAVERASALLSPYGASIVEYTSQADATTIPGHYVVYWELMVREGGAWPPPAEEEGRGVFERCCLEMEEALNAVYRQGRNGEAIGPLEIRVVRAGTFEEVMDYAISRGASINQYKAPRCVSFGPIIELLNSRVISKHFSPACPKYSPHKK | 664.242 h⁻¹ | 42.295 h⁻¹ | 1.548 h⁻¹ | 0.401 h⁻¹
4 | OsGH3-1: GH3 protein, accession Q8LQM5 (protein, listed as Oryza sativa) MPEAPTAKTAPAYGYAPGAHAEALEFIEHVTANAGQVQRRVLGEILAQNAPAEYLRRYGIPGSPDVVDAFRRLVPLVTYEGLQPDILRIANGDTSPIFSGKPISEFLTSSGTSGGERKLMPTIADEMNRRSLLYSLLMPVMSQSVSGLDKGKAMYLLFVKAESRTPGGLAARPVLTSYYRSRQFLDRPRDPYTSYTSPDEAILCVDSYQSMYAQLLCGLVHRADVLRVGAVFASGFLRAIHFLEKHWARLCHDIRTGELDPEITDRVVRDAVGRVLRADPALADAIEDECARASWEGIIRRLWPRTKYIDVIVTGTMSQYIPTLEFYGGGLPLTCTMYASSECYFGLNLNPMCKPSDVAYTLIPTMCYYEFLPVNCNNATAEASHRDLVDLVDVKLGHEYELVVTTYSGLYRYRVGDVLRVAGFKNKAPMFSFVRRQNVALSVDSDKTDETELHAAVSGAVQHLAPFGASLVEYTSYADAATIPGHYVLFWELRAGSTAVPASVFEECCLSVEEALNSVYRQGRACDRSIGPLEIRVVAEGTFDKLMDYAISRGASINQYKAPRCVRPGPVVELLDARVQGKYFSPKCPKWSPGNKQWNKSKDLVGKGDA | 633.605 h⁻¹ | 33.412 h⁻¹ | 0.937 h⁻¹ | 0.207 h⁻¹
5 | SbEES01517: GH3 protein, accession EES01517 (protein, Sorghum bicolor) MAPMATAAAAAAVGRVTALGVAACERDVEKLEFIEDKTKNFDAEQVRVLAEILARNNGAEYLRRHGMEGRTDRQAFKARVPVVTYEDLRPEIDRIANGDRSNIISSHPITEFLTSSGTSAGERKLMPTIEDELNRRQMLYSLLMPVMNLYVPGLDKGKGLYFLFIKSETKTPGGLPARPVLTSYYKSDHFKHRPYDPYNVYTSPTAAILCTDSFQSMYSQMLCGLVARTEVLRVGAVFASGLLRAIRFLQLHWKELAHDLRTGTLSARVVEPSIRDAVAEVLTKPDAGLADLVEAECGKDNWEGIITRVWPNTKYLDVIVTGAMAQYIPTLKYYSGGLPMACTMYASSECYFGLNLRPMCDPSEVSYTIMPNMGYFELLPHDPEDKPAVSSSSAASAMDHDRLLVDLADAEVGKEYELVITTYAGLCRYRVGDILHVTGFHNAAPQFRFVRRKNVLLSIDSDKTDEAELQSAVERASRLLAPYDARIVEYTSQADATTIPGHYVVYWELMVRDGGASPEPDVFERCCLEMEEALNAVYRQGRNGDAIGPLEIRVVRGGTFEEVMDYAISRGASINQYKAPRCVSFGPIIELLNSRVVSRHFSPACPTYSPHKK | 855.770 h⁻¹ | 80.034 h⁻¹ | 0.953 h⁻¹ | 0.426 h⁻¹
6 | SbEER99639: GH3 protein, accession EER99639 (protein, Sorghum bicolor) MAVMAEVVSTTGAALRSPASQPPPPPAAAAVKDADAEKLQFIEEMTSNVDAVQERVLGEILARNADTEYLAKYGITGASDRATFRAKVPMATYEDLQPYIRRIADGDRSPILSGHPVSEFLTSSGTSAGERKLMPTIEDELNRRQLLYSLQMPVMNLYVPGMDKGKALHFLFVKSETKTPGGLAARPVLTSYYKSNHFKNRPFDAYNNYTSPTAAILCADAFQSMYAQMVCGLCQRQDVLRVGAVFASGLLRAIRFLQLNWEQLADDIESGSLTPRITDPSVREAVAGILRPDPELASLVRSECSKGDWAGIITRIWPNTKYLDVIVTGAMAQYIPTLKYYSGGLPMACTMYASSECYFGLNLRPMCDPSEVSYTLMPNMCYFEFLPMDAAASGGGDASQLVDLARVEVGREYELVITTYAGLNRYRVGDVLQVTGFHNTAPQFRFVRRKNVLLSIESDKTDEAELQRAVERASALLRPHGAAVVEYTSQAYTKSIPGHYVIYWELLTKGPAAGAGAAVDRETLDRCCLEMEEALNTVYRQSRVADGSIGPLEIRVVRPGTFEELMDYAISRGASINQYKVPRCVTFPPIIELLDSRVVSTHFSPALPHWTPGQRSHSD | 651.991 h⁻¹ | 31.110 h⁻¹ | 2.476 h⁻¹ | 0.457 h⁻¹
7 | OsGH3-8: GH3 protein, accession Q0D4Z6 (protein, listed as Oryza sativa) MAVMTDVSTTGTALRTPAAGAVKEGDVEKLRFIDEMTTNVDAVQERVLGEILGRNAGTEYLTKCGLDGATDRAAFRAKVPVVSYDDLQPYIQRIANGDRSPILSTHPVSEFLTSSGTSAGERKLMPTIMDELDRRQLLYSLLMPVMNLYVPGLDKGKGLYFLFVKSETKTPGGLTARPVLTSYYKSDHFKNRPYDPYHNYTSPTAAILCADAFQSMYAQMVCGLCQRNDVLRLGAVFASGLLRAIRFLQLNWEQLADDIESGELTPRVTDPSVREAVAAILLPDPELAKLIRAECSKGDWAGIITRVWPNTKYLDVIVTGAMAQYIPTLEFYSGGLPMACTMYASSECYFGLNLRPMCDPSEVSYTIMPNMGYFEFLPVDETGAASGDATQLVDLARVEVGREYELVITTYAGLNRYRVGDVLRVTGFHNAAPQFRFVRRKNVLLSIESDKTDEAELQRAVERASALLRPHGASVVEYTSQACTKRIPGHYVIYWELLTKGAGATVVDADTLGRCCLEMEEALNTVYRQSRVADGSIGPLEIRVVRPGTFEELMDYAISRGASINQYKVPRCVTFPPIVELLDSRVVSSHFSPALPHWTPARRSE | 578.598 h⁻¹ | 28.361 h⁻¹ | 2.917 h⁻¹ | 0.368 h⁻¹
